Laboratory results: patent US20170137467A1 (CHROMOTEK, published 2017)
Square brackets hold non-standard residues; d marks the D form. GABA = NCCCC(=O)O

T1: BC2T A5Y (human)
T1 construct: position 5 library, row Y
T1 peptide: Ac-PDRKYAVSHWQQ-NH2

T2: BC2T V7H (human)
T2 construct: position 7 library, row H
T2 peptide: Ac-PDRKAAHSHWQQ-NH2

T3: BC2T V7T (human)
T3 construct: position 7 library, row T
T3 peptide: Ac-PDRKAATSHWQQ-NH2

T4: BC2T A6S (human)
T4 construct: position 6 library (BC2TA6X), row S
T4 peptide: Ac-PDRKASVSHWQQ-NH2

T5: BC2T D2R (human)
T5 construct: position 2 library, row R
T5 peptide: Ac-PRRKAAVSHWQQ-NH2

T6: BC2T A5F (human)
T6 construct: position 5 library, row F
T6 peptide: Ac-PDRKFAVSHWQQ-NH2

T7: BC2T D2T (human)
T7 construct: position 2 library, row T
T7 peptide: Ac-PTRKAAVSHWQQ-NH2

T8: BC2T V7C(Abu) (human, also: Abu described as gamma-amino butyric acid)
T8 construct: position 7 library, row C(Abu) / C*
T8 peptide: Ac-PDRKAA[GABA]SHWQQ-NH2

T9: BC2T A6D (human)
T9 construct: position 6 library (BC2TA6X), row D
T9 peptide: Ac-PDRKADVSHWQQ-NH2

T10: BC2T R3F (human)
T10 construct: position 3 library (BC2TR3X), row F
T10 peptide: Ac-PDFKAAVSHWQQ-NH2

T11: BC2T R3S (human)
T11 construct: position 3 library (BC2TR3X), row S
T11 peptide: Ac-PDSKAAVSHWQQ-NH2

T12: BC2T D2F (human)
T12 construct: position 2 library, row F
T12 peptide: Ac-PFRKAAVSHWQQ-NH2

T13: BC2T P1D (human)
T13 construct: position 1 library, row D
T13 peptide: Ac-DDRKAAVSHWQQ-NH2

T14: BC2T V7Q (human)
T14 construct: position 7 library, row Q
T14 peptide: Ac-PDRKAAQSHWQQ-NH2

T15: BC2T P1K (human)
T15 construct: position 1 library, row K
T15 peptide: Ac-KDRKAAVSHWQQ-NH2

T16: BC2T K4H (human)
T16 construct: position 4 library, row H
T16 peptide: Ac-PDRHAAVSHWQQ-NH2

T17: BC2T R3Q (human)
T17 construct: position 3 library (BC2TR3X), row Q
T17 peptide: Ac-PDQKAAVSHWQQ-NH2

T18: BC2T D2K (human)
T18 construct: position 2 library, row K
T18 peptide: Ac-PKRKAAVSHWQQ-NH2

T19: BC2T A6C(Abu) (human, SMILES …)
T19 construct: position 6 library (BC2TA6X), row C(Abu) / C*
T19 peptide: Ac-PDRKA[GABA]VSHWQQ-NH2

T20: BC2T A6N (human)
T20 construct: position 6 library (BC2TA6X), row N
T20 peptide: Ac-PDRKANVSHWQQ-NH2

T21: BC2T K4T (human)
T21 construct: position 4 library, row T
T21 peptide: Ac-PDRTAAVSHWQQ-NH2

T22: BC2T K4N (human)
T22 construct: position 4 library, row N
T22 peptide: Ac-PDRNAAVSHWQQ-NH2


What was measured:
Assay in all cases: library pulldown, LC-MS of supernatant; ratio vs GFP-Nb control (0=captured, 1=not captured)
[1] = target: T1, BC2T A5Y
Procedure, shortened: (§1)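 Unbound peptide left in supernatant after 1 h pulldown in PBS/0.01% CHAPS measured by reversed-phase LC-MS (8–30% eluent B gradient, 20 min).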

[2] = target: T2, BC2T V7H
Procedure, shortened: as §1

[3] = target: T3, BC2T V7T
Procedure, shortened: as §1

[4] = target: T4, BC2T A6S
Procedure, shortened: as §1

[5] = target: T5, BC2T D2R
Procedure, shortened: as §1

[6] = target: T6, BC2T A5F
Procedure, shortened: as §1

[7] = target: T7, BC2T D2T
Procedure, shortened: as §1

[8] = target: T8, BC2T V7C(Abu)
Procedure, shortened: as §1

[9] = target: T9, BC2T A6D
Procedure, shortened: as §1

[10] = target: T10, BC2T R3F
Procedure, shortened: as §1

[11] = target: T11, BC2T R3S
Procedure, shortened: as §1

[12] = target: T12, BC2T D2F
Procedure, shortened: as §1

[13] = target: T13, BC2T P1D
Procedure, shortened: as §1

[14] = target: T14, BC2T V7Q
Procedure, shortened: as §1

[15] = target: T15, BC2T P1K
Procedure, shortened: as §1

[16] = target: T16, BC2T K4H
Procedure, shortened: as §1

[17] = target: T17, BC2T R3Q
Procedure, shortened: as §1

[18] = target: T18, BC2T D2K
Procedure, shortened: as §1

[19] = target: T19, BC2T A6C(Abu)
Procedure, shortened: as §1

[20] = target: T20, BC2T A6N
Procedure, shortened: as §1

[21] = target: T21, BC2T K4T
Procedure, shortened: as §1

[22] = target: T22, BC2T K4N
Procedure, shortened: as §1

ratio [1] | ratio [2] | ratio [3] | ratio [4] | ratio [5] | ratio [6] | ratio [7] | ratio [8] | ratio [9] | ratio [10] | ratio [11] | ratio [12] | ratio [13] | ratio [14] | ratio [15] | ratio [16] | ratio [17] | ratio [18] | ratio [19] | ratio [20] | Binder | other results
0.1 | 0.3 | 0.2 | 0.5 | 0.1 | 0.1 | 0.1 | 0.2 | 1 | 0.8 | 0.6 | 0.2 | 1 | 0.4 | 0.3 | 0.1 | 0.5 | 0.2 | 0.1 | 1 | BC2 nanobody (BC2-Nb) (VHH, immobilised on agarose/sepharose beads in this assay; also called BC2 nanotrap (immobilised form); not shown: C-terminal 6xHis-tag added by pHEN6 vector) VHH: QVQLVESGGGLVQPGGSLTLSCTASGFTLDHYDIGWFRQAPGKEREGVSCINNSDDDTYYADSVKGRFTIFMDNAKDTVYLQMNSLKPEDTAIYYCAEARGCKRGRYEYDFWGQGTQVTVSS | ratio [21]: 0.2; ratio [22]: 0.5
0.2 | 0.4 | 0.3 | 0.8 | 0.2 | 0.2 | 0.2 | 0.5 | 1 | 1 | 0.9 | 0.3 | 0.8 | 0.5 | 0.5 | 0.3 | 0.9 | 0.2 | 0.3 | 1 | BC2-NbR106S (VHH, immobilised on beads in this assay; not shown: C-terminal 6xHis-tag added by pHEN6 vector) VHH: QVQLVESGGGLVQPGGSLTLSCTASGFTLDHYDIGWFRQAPGKEREGVSCINNSDDDTYYADSVKGRFTIFMDNAKDTVYLQMNSLKPEDTAIYYCAEARGCKRGSYEYDFWGQGTQVTVSS | ratio [21]: 0.7; ratio [22]: 0.9
